{"source": "patent US20170106051A1", "about": "(BAYLOR RESEARCH INSTITUTE, published 2017)", "key": {"[1]": {"molecular_target": "T1, human DCIR (human, UniProt Q9UMR7 1-237)", "T1 construct": "whole, on cells; The assay was on primary human blood DCs", "T1 sequence (looked up)": "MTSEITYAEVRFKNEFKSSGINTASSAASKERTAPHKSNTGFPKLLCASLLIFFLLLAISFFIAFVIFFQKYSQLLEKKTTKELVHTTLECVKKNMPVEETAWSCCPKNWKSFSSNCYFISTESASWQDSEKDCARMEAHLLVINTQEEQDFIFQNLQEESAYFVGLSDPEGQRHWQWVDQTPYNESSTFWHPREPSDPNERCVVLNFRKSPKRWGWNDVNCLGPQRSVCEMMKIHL", "experiment": "flow cytometry on purified human blood pDCs, detection with anti-human IL-10", "experimental": "(§1) The ability of antibody-IL-10 fusion proteins to bind to human DCs was measured. Both myeloid DC (mDCs) and plasmacytoid DCs (pDCs) were purified from human blood. DCs were incubated for 20 min in ice in the presence of different concentrations of recombinant fusion proteins of antibody and IL-10 (FIG. 1). After vigorous washing, DCs were further stained with anti-human IL-10 to detect surface bound antibody-IL-10 fusion proteins using flow cytometry."}, "[2]": {"molecular_target": "T2, human CD40 (human, UniProt P25942 21-277)", "T2 construct": "whole, on cells; The assay was on primary human blood DCs; also called hCD40", "T2 sequence (P25942 21-277)": "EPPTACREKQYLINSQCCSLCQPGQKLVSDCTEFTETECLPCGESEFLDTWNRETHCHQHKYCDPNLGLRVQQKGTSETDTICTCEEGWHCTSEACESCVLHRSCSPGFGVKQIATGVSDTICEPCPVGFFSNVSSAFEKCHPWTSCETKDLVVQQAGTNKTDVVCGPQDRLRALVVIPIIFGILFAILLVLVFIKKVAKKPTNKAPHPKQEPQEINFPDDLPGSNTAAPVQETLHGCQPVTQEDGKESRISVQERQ", "experiment": "flow cytometry on purified human blood mDCs, detection with anti-human IL-10", "experimental": "as §1"}}, "data": [{"binder": "mAnti-DCIR_9E8_H-LV-hIgG4H-C-Flex-v1-hIL-10 antibody (antibody, Mouse/human chimeric IgG4 kappa antibody with human IL-10 fused through a linker to the C-terminus of the heavy chain; also called anti-DCIR (9E8)-IL-10; Anti-DCIR-9E8-hIL-10) heavy: not shown light: NIVLTQSPASLAVSLGQRATISCRASESIHSYGNSFLHWYQQKPGQPPKLLIYLASNLESGVPARFSGSGSRTDFTLTIDPVEADDAATYYCQQNNEDPWTFGGGTKLEIKRTVAAPSVFIFPPSDEQLKSGTASVVCLLNNFYPREAKVQWKVDNALQSGNSQESVTEQDSKDSTYSLSSTLTLSKADYEKHKVYACEVTHQGLSSPVTKSFNRGEC", "values": [{"measurement": "binding result", "setting": "[1]", "result": "binds"}]}, {"binder": "manti-hCD40_24A3.3F1_H-LV-hIgG4H-C-Flex-v1-hIL-10 antibody (antibody, Mouse/human chimeric IgG4 kappa antibody with human IL-10 fused through a linker to the C-terminus of the heavy chain; also called anti-CD40 (24A3)-IL-10; Anti-CD40-24A3-hIL-10) heavy: not shown light: QIVLTQSPAFMSASPGEKVTMTCSASSSVSYMHWYQQKSGTSPKRWIYDTSKLASGVPARFSGSGSGTSYSLTISSMEAEDAATYYCQQWSSNPLTFGAGTKLEIKRTVAAPSVFIFPPSDEQLKSGTASVVCLLNNFYPREAKVQWKVDNALQSGNSQESVTEQDSKDSTYSLSSTLTLSKADYEKHKVYACEVTHQGLSSPVTKSFNRGECAS", "values": [{"measurement": "binding result", "setting": "[2]", "result": "binds"}]}]}
